Test results published in the nanobody polyreactivity screen of Harvey et al. (2022).

assay: yeast display, Sf9 membrane polyspecificity reagent, FACS + sequencing; frameworks hold sequencing errors
Summary of the method: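 Polyreactivity labels are assigned by the sorting gate from which each nanobody was recovered. The gates were low and high (top ~1%), set on anti-HA fluorescence for expression and streptavidin fluorescence for reagent binding. Before sorting, galactose-induced (36–48 hours) yeast display cells were stained for 1 hour at 4 °C with 10% biotinylated, detergent-solubilized Sf9 membrane reagent.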

Row | Sequence | polyreactivity (PSR sort gate)
1 | QDQLVESGGGLVQAGGSLRLSCAASGSIFGRYAMGWYRQAPGKERELVANITSGDSTNYADSVKGRFTISRDNAKNTVYLQMNSLKPEDTAVYYCAADTIYFYYYRHWYSKYYYWGQGTQVTVSS | high polyreactivity
2 | QDQLVESGGGLVQAGGSLRLSCAASGSIFGWYAMGWYRQAPGKERELVAAITWSGGSTYYADSVKGRFTISRDNAKNTVYLQMNSRKPEDTAVYYCAATYYGYVGRYDYWGQGTQVTVSS | high polyreactivity
3 | QDQLVESGGGLVQAGGSLRLSCAASGSIFNVNTMGWYRQAPGKERGLVAAISYSGGSTYYADSVKGRFTISRDNAKNTVYLQMNSLKPEETAVYYCNVSPTTSGDGGGYDSWGQGTQVTVSS | low polyreactivity
4 | QDQLVESGGGLVQAGGSLRLSCAASGSIFSVYVMGWYRQAPGKERELVATISSGGGTYYADSVKGRFTISRDNAKNTVYLQMNSLKPEDTAVYYCNADWDDWKGDYWGQGTQVTVSS | low polyreactivity
5 | QDQLVESGGGLVQAGGSLRLSCAASGSIFSYYAMGWYRQAPGKERELVAAIRRGGSTYYADSVKGRFTISRDNEKNSVYLQMNSLKPEDNAVYYCAASLGWRFYYWGQGTQVTVSS | high polyreactivity
6 | QDQLVESGGGLVQAGGSLRLSCAASGSIFTRYTMGWYRQAPGKERELVATISSRGDGTYYADSVKGRFTISRDNAKNTVYLQMNSLKPEDTAVYYCAARYRRVHSGYGYWGQGTQVTVSS | high polyreactivity
7 | QDQLVESGGGLVQAGGSLRLSCAASGSIFVGYAMGWYRQAPGKETELVAAISTRGGSTYYADSVKGRFTISRDNAKNTVYLQMNSVKPEDTAVYYCAADYLDSTYGYVYGWDDYWGQGTQVTVSS | low polyreactivity
8 | QDQLVESGGGLVQAGGSLRLSCAASGSIFYQNAMGWYRQAPGKERELVAAISIGGGSTYYADSVKGRFTISRDNAKNTVYLQMNSLKPEDTAVYYCATRRSVIYSYVPFDYWGQGTQVTVSS | low polyreactivity
9 | QDQLVESGGGLVQAGGSLRLSCAASGSIIFFYVMGWYRQAPGKERELVAAITYSGGSTFYADSVKGRFTISRDNAKNSVYLQMNSLKPEDTAVNYCAAEYGQWTPLDPYNHWGQGTQVNVSS | low polyreactivity
10 | QDQLVESGGGLVQAGGSLRLSCAASGSNFLKYTMGWYRQAPGKERELVAAITSGGTTNYADSVKGRFTISRDNAKNTVYLQMNSLKPEDTAVYYCARDSYQLGLIRDPLEYDYWGQGTQVTVSS | low polyreactivity
11 | QDQLVESGGGLVQAGGSLRLSCAASGSSFGYYAMGWYRQAPGKERELVASISWRGVSTYYADSVKGRFTISRDNAKNTVYIQMNSLKPEDTAVYYCATVYRWSFDYWGQGTQVTVSS | low polyreactivity
12 | QDQLVESGGGLVQAGGSLRLSCAASGSTFDSYDMGWYRQAPGKERELVAAISGGGGTYYADSVKGRFTISRDNAKNTVYLQMNSLKPEDTAVYYCAARTNGWPGMGYWGQGTQVTVSS | high polyreactivity
13 | QDQLVESGGGLVQAGGSLRLSCAASGSTFGVNAMGWYRQAPGKERELVAIITSTTYSDSVKGRFTISRDNAKNTVYLQMNSLKPEDTAVYYSAADSLLVLFDYWGQGTQVTVSS | low polyreactivity
14 | QDQLVESGGGLVQAGGSLRLSCAASGSTFKVYAMGWYRQAPGKERELVAAISASDCSTYYADSVKGRFTISRDNAKNTVYLQMNILKAEDTAVYYCNAAYPEWYAYDYWGQGTQVTVSS | low polyreactivity
15 | QDQLVESGGGLVQAGGSLRLSCAASGSTFNNNALGWYRQAPGKERELVAAISYTGGSTYYADSVKGRFTISRDNAKNSVYLHMNSLKPEDTAVYYCARRQARKFYYWGQGTQVTVSS | high polyreactivity
16 | QDQLVESGGGLVQAGGSLRLSCAASGSTFPDYAMGRYRQAPGKERELFAAISSGGSTNYADSVKGRFTISRDNAKNTVYLQMNSLKPEDTAVYYCAADVGAIYDKAVNGYWGQGTQVTVSS | low polyreactivity
17 | QDQLVESGGGLVQAGGSLRLSCAASGSTFRHNAMGWYRQAPGKERELVATIRTSGGTTYYADSVKGRFTISRDNAKNTVYLHMNSLKPEDTAVYYCAAVSYLFLYQGYPIAYPMYYWGQGTQVTLSS | low polyreactivity
18 | QDQLVESGGGLVQAGGSLRLSCAASGSTFRPYAMGWSRQAPGKERELVAAITTGGSTNYADSVKGRFTISRDNAKNTVYLQMNSLKPEDTAVYYCNADYDVLNWGYYDWGYDYWGHGTQVTVSS | low polyreactivity
19 | QDQLVESGGGLVQAGGSLRLSCAASGSTFSYNMGWYRQAPGKERELVAAISGSGGSTYADSVKGRFTISRDNAKNTVYLQMNSLKPEDTAVYYCATVRYWVHEYGYWGQGTQVTVSS | high polyreactivity
20 | QDQLVESGGGLVQAGGSLRLSCAASGSTFVSNAMVWYRQAPGKERELVAAISSSGGRTSYADSVKGRFTISRDNAKNTVYLQMNSLKPEDTAVYYCAARFKSVDYVQYYYWGQGTQVTVSS | low polyreactivity
21 | QDQLVESGGGLVQAGGSLRLSCAASGSTIPISVRGWYRQAPGKERELVAAITYSGGSTYYADSVKGRFTISRDNAKNTVYLQMNSLKPEDTAVYYCAAGVYRWHYLYKYTQRRVEYWGQGTQVTVSS | high polyreactivity
22 | QDQLVESGGGLVQAGGSLRLSCAASGSTLYAYAMGWYRQAPGKERELVAASRTGGSTYYADSLKGRFTISRDNAKNTVYLQMNSLKPEDTAVYYCAALYYHEYDYWGQGTQVTVSS | low polyreactivity

Row | Sequence | polyreactivity (PSR sort gate)
23 | QDQLVESGGGLVQAGGSLRLSCAASGSTMRWYAMGWYRQAHGKERELVARISWTTGSTYYADSVKGRFTISRDNAKNTVYLQMNSLKPEDTAVYYCAVASGQSFYWGQGTQVTVSS | high polyreactivity
24 | QDQLVESGGGLVQAGGSLRLSCAASGTFRRYAMGWYRKAPGKERELVAAISSGGGSTYYADSVKGRFTISRDNAKNTVYLQMNSLKPEDTAVYDCAAANSYTFRYGSWGQGTQVTVSS | high polyreactivity
25 | QDQLVESGGGLVQAGGSLRLSCAASGTTFQYNAMGWYRQAPGKERELVAAISGSGGSTYYADSVKGRFTISRDNAKNTVYLEMNSLKPEDTAVYYCARVGYRHGYYNYCGQGTQVTVSS | high polyreactivity
26 | QDQLVESGGGLVQAGGSLRLSCAASGTTFYRYAMGWYRQAPGKERELVAAISSSGGYTYYADSVKGRFTISRDIAKNTVYLQMNSLKPEDTAVYYCNAAYRVRRFDYWGQGTQVTVSS | low polyreactivity
27 | QDQLVESGGGLVQAGGSLRLSCAASGYTFPSYAMGWYRQAPGKEREFVAAIDSSGGSTNYADSVKGRFTISRDNAKNTVYLQMNSLKPEETAVYYCAREYSSGYWVRHLFYYWGQGTKVTVSS | low polyreactivity
28 | QDQLVESGGGLVQAGGSLRLSCAASRSIFPLYAMGWYRQATGKEREMVAAISYSGGRTYYADSVKGRFTISRDNAKNTVYLQMNSLKPEDTAVYYCNTRQRVIDDYWGQGTQVSVSS | high polyreactivity
29 | QDQLVESGGGLVQAGGSLRLSCAPSGSTFGDYDMGGYRPAPGKERELVAAISNGGSTYYAASVKGRFTISRDNAKNTVYLQRNSLKPEDTADFYCNADNVEIRSTYEYGRYLYGYWGQGTQVTVSS | low polyreactivity
30 | QDQLVESGGGLVQAGGSLRLSCAPSGYFDLNALGWYRQAPGKERELVAANTDGGSTNYADSVKGRFTISRDNAKNTFYLQMNSLKPEDTAVYYCAADRGHTILHGGYWGQGTQVTVSS | low polyreactivity
31 | QDQLVESGGGLVQAGGSLRLSCASSGSTFPWYTMGWSRQAPGKERELVAAIDGSAGDTYYADSVKGRVTISRDNAKNTVYLQMNSLKPEDTAVYYCATRTWRWGYLHYDYWGQGTQVTVSS | low polyreactivity
32 | QDQLVESGGGLVQAGGSLRLSCDASGSIFEQNAMGWYRPAPGKERELVAAISSGSTNYADSVKGRFTISRDNAKNTVYLQMNSLKPEDTAVYYCAKRWRRRFVDVWSLYDYWGQGTQVTVSS | low polyreactivity
33 | QDQLVESGGGLVQAGGSLRLSCPASGHTFAKYAMGWYRQAPGKERELVAAISSGGDTYYADSVKGRFTISRDNAKNTVYLQMNSLIPEDTAVYYCAATSICGSWSFWSPGEYRHYDYWGQGTQVTVSS | low polyreactivity
34 | QDQLVESGGGLVQAGGSLRLSCPASGRTFNYYAMGWYRQAPGKERELVAAISVSTTRTYYADSVKGRFTISRDNAKNTVYLQMNSLKPEDTAVYYCAAYRAGRFGYLGQGTQVTVSS | high polyreactivity
35 | QDQLVESGGGLVQAGGSLRLSCSASGSTFIRNSKGWYRQATGKERELVAAITTDGSTDYADSVKGRFTISRDNAKNTVYLQMNSLKPEDTAVYYCNAEYRLDALSYDYWGQGTQVTVSS | low polyreactivity
36 | QDQLVESGGGLVQAGGSLRLSGDASGSTFSKYVMGWYRQAPGKERELVAAISGGDRTYYADSVKGRFTISRDNAKNTVYLQMNSLKPEDTAVYFCAAEVLKTRWSYDYWGQGTQVTVSS | high polyreactivity
37 | QDQLVESGGGLVQAGGSLRLSRAASGLIFYSYAMGWYRQAPGKERELVAAISSGGGRTYYADSVKGRFTISRDNAKNTVDLQMNSLKPEDTAVYYCAAYGSAAQKYPYDRPYRYGYWGQGTQVTVSS | high polyreactivity
38 | QDQLVESGGGLVQAGGSLRLSSAASGRIFKRYAMGWYIQAPGKERELVAAITYNSGSTYYADSVKGRFTISRDNAKNTVYLQMNSLKPEDTAVFYCAAEKWSDQSPRGDYWGQGTQVTVSS | low polyreactivity
39 | QDQLVESGGGLVQAGGSLRLTCAASGITFYRYAMGWYRQAPGKERELVAAITSGGRTNYADSVKGRFTISRDNAKNTVYLQMNSMKPEDTAVYYCGARLVRESEPLGYWGQGTQVTVSS | high polyreactivity
40 | QDQLVESGGGLVQAGGSLRLTCAASGSIFTAYTMGWYRQAPVKERELVAAITERGGSTYYADSVKGRFTISRDNAKNTFYLQMNRMKPEDTAVYYCAASTLKDIYLWFRVDYWGQGTQVTLSS | low polyreactivity
41 | QDQLVESGGGLVQAGGSLRLTSAASGRIFTIYAMGWYRQPPGKDRELVAAISDRGTRTYYADSVKGRFTISRDIAKNTVYLQMNSLKPEDTAVNYCSTDALYTYGYDYWGQGTQVTVSS | low polyreactivity
42 | QDQLVESGGGLVQAGGSLSLSCAASGRTFYDYAMGWYRQAPGKERELVAAISRSGGRTYYADSVKGRFTISRDNAKNTVYLQMNSLKPEDTAVYYCNAVRYVLGYSYDYNYWGQGTQVTVSS | high polyreactivity
43 | QDQLVESGGGLVQAGGTLRLSCAATGSTFTNYAMGWYRQAPGKERELVAALTSVGSTYYADSVKGRFTISRDNAKNTVYLQTNSLKAEDTAVYYCNVVYRDQYNYWGQGTQVTVSS | low polyreactivity
